Results on ten proteins are retold here after paper doi:10.64898/2025.12.11.693622 (bioRxiv, 2025).

The series “cross-linking” concerns the molecule itself. Kind of series: cross-linking.
The series “SEC-MALS” concerns the molecule itself. Kind of series: SEC-MALS.
The series “crystal structure” concerns the molecule itself. Kind of series: crystal structure.
The series “AUC + SEC” deals with the molecule itself. Kind of series: AUC + SEC.

Positions count from the first letter of the chain named. Numbers in names are those of the source. Where “and” joins values, the source holds several entries; their conditions need not be identical. Identical values can stand only once.

B1: CCDC127^1-134-HA (N-terminal variant with the coiled-coil, lacking the C-terminal domain) (domain or fragment, human, UniProt Q96BQ5 1-134, looked up)
chain: MNNLNDPPNWNIRPNSRADGGDGSRWNYALLVPMLGLAAFRWIWSRESQKEVEKEREAYRRRTAAFQQDLEAKYHAMISENRRAVAQLSLELEKEQNRTASYREALISQGRKLVEEKKLLEQERAQVMQEKRQV
One may read the stoichiometry N as a count of units in the complex or per binding partner. Regarding B1, in the series “cross-linking”, the “stoichiometry N” value is 2.

B2: MBP-tagged complete IMS domain of CCDC127, C144S with L176S/F177S/V222S/W223S (MBP-CC-CHB^C144STip, residues 48-260) (domain or fragment, human, UniProt Q96BQ5 48-260, looked up)
chain: SQKEVEKEREAYRRRTAAFQQDLEAKYHAMISENRRAVAQLSLELEKEQNRTASYREALISQGRKLVEEKKLLEQERAQVMQEKRQVQPLRSAYLSSLQREENWQRRARLLLKEFEAVLTERQNIYCSSSLPRSKRLEIEKSLLVRASVDPVAADLEMAAGLTDIFQHDTYCGDSSNTNKRQNGRLMWLYLKYWELVVELKKFKRVEEAILEK
As for B2, the “stoichiometry N” value in “SEC-MALS” lay within 2 to 3.

B3: MBP-tagged complete IMS domain of CCDC127, C144S (MBP-CC-CHB^C144S, residues 48-260) (domain or fragment, human, UniProt Q96BQ5 48-260, looked up)
chain: B2 chain with S129L, S130F, S175V, S176W
In the case of B3, the “stoichiometry N” value in “SEC-MALS” stood at 2.

B4: CCDC127^135-260-HA (C-terminal helical bundle domain) (domain or fragment, human, UniProt Q96BQ5 135-260, looked up)
chain: QPLRSAYLSCLQREENWQRRARLLLKEFEAVLTERQNIYCSLFLPRSKRLEIEKSLLVRASVDPVAADLEMAAGLTDIFQHDTYCGDVWNTNKRQNGRLMWLYLKYWELVVELKKFKRVEEAILEK
In the case of B4, in the series “cross-linking”, the “stoichiometry N” value is 2.

B5: MBP-tagged C-terminal helical bundle of CCDC127, C144S variant (MBP-CHB^C144S, residues 137-260) (domain or fragment, human, UniProt Q96BQ5 137-260, looked up)
chain: LRSAYLSSLQREENWQRRARLLLKEFEAVLTERQNIYCSLFLPRSKRLEIEKSLLVRASVDPVAADLEMAAGLTDIFQHDTYCGDVWNTNKRQNGRLMWLYLKYWELVVELKKFKRVEEAILEK
Regarding B5, in “SEC-MALS”, the “stoichiometry N” value was 2.

B6: MBP-tagged C-terminal helical bundle of CCDC127, C144S with L176S/F177S/V222S/W223S (MBP-CHB^C144STip, residues 137-260) (domain or fragment, human, UniProt Q96BQ5 137-260, looked up)
chain: B5 chain with L40S, F41S, V86S, W87S
For B6, the “stoichiometry N” value in “SEC-MALS” came to 2.

B7: CCDC127 coiled-coil domain (CCDC127^CC, residues 48-120), wild type (domain or fragment, human, UniProt Q96BQ5 48-120, looked up)
chain: SQKEVEKEREAYRRRTAAFQQDLEAKYHAMISENRRAVAQLSLELEKEQNRTASYREALISQGRKLVEEKKLL
In the case of B7, the “stoichiometry N” value in “crystal structure” was 2 and 4.

B8: CCDC127^CC-K73A (residues 48-120) (domain or fragment, human, UniProt Q96BQ5 48-120, looked up)
chain: B7 chain with K26A
Consider B8, for which the “stoichiometry N” value in “AUC + SEC” turned out to be 4.

B9: CCDC127^CC D69A (residues 48-120) (domain or fragment, human, UniProt Q96BQ5 48-120, looked up)
chain: B7 chain with D22A
As for B9, the “stoichiometry N” value in “AUC + SEC” stood at 2.

B10: CCDC127 WT-HA (full-length CCDC127 with HA tag) (natural protein, human, UniProt Q96BQ5 1-260, looked up)
chain: MNNLNDPPNWNIRPNSRADGGDGSRWNYALLVPMLGLAAFRWIWSRESQKEVEKEREAYRRRTAAFQQDLEAKYHAMISENRRAVAQLSLELEKEQNRTASYREALISQGRKLVEEKKLLEQERAQVMQEKRQVQPLRSAYLSCLQREENWQRRARLLLKEFEAVLTERQNIYCSLFLPRSKRLEIEKSLLVRASVDPVAADLEMAAGLTDIFQHDTYCGDVWNTNKRQNGRLMWLYLKYWELVVELKKFKRVEEAILEK
Regarding B10, the “stoichiometry N” value in the series “cross-linking” came out at 2.
